Measured values: the supplement of paper PMC10126150
± gives the standard deviation of the averaged measurements.

system: ATP; assay: switch fluorescence ratio, 500 uM ATP over buffer (Cy3 cluster intensity, sum of 5 cycles each) (fold (ratio)); higher = stronger signal-on switching upon ATP binding; sequences stand for … in TCGTCGGCAGCGTCAGATGTGTATAAGAGACAGTTTTTTTTTTTTTTTTTTTTTTTTT…TC; conditions: aptamer strand: ATP DNA aptamer (quencher-CACCTGGGGGAGTATTGCGGAGGAAGG + anchor), 100 nM annealed; ATP concentration: 500 uM
Method in brief: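 Clusters carrying Cy3-labelled switching strands on a modified Illumina MiSeq flow-cell were annealed to 100 nM quencher-labelled ATP aptamer and imaged in selection buffer. They were imaged again after 15 min with 500 uM ATP at 22 °C, over five buffer/ATP cycles with NaOH stripping and re-annealing in between. For each cluster, the fluorescence ratio is the summed Cy3 intensity of the target cycles divided by that of the buffer cycles, averaged per switch-domain sequence. Clusters outside 100-1000 RFU were left out.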
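Also: ATP exposure 15 min at 22 °C before imaging.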

Row | Sequence | switch fluorescence ratio
1 | TGGCGCCGAT | 0.9608 ± 0.0026
2 | GTTATGCTCT | 1.01 ± 0.014
3 | TTTTTCTAAG | 1.014 ± 0.007
4 | CGGGGGCCCT | 1.01 ± 0.034
5 | GCGGATGAGC | 0.995 ± 0.013
6 | CCAAGCACTT | 1.45 ± 0.14
7 | AAGGATTGGG | 1.02 ± 0.0049
8 | CTATAAACGG | 1.03 ± 0.054
9 | TGATTTGGGA | 0.971 ± 0.015
10 | CGATAATGAA | 1 ± 0.029
11 | ACAAGGGGCT | 1.02 ± 0.021
12 | TACCTAGTTA | 1.03 ± 0.029
13 | TTTTTTTTAC | 1.04 ± 0.029
14 | GGTCTATCGG | 0.965 ± 0.018
15 | TTACGGGGTC | 1.07 ± 0.12
16 | GGTGCTGTGT | 1.01 ± 0.039
17 | GCAAAAAAAT | 1.04 ± 0.025
18 | TGGGGGGATT | 1.01 ± 0.045
19 | TTAAGACTTC | 1.02 ± 0.041
20 | CTTATTTGGG | 0.997 ± 0.031
21 | GTGGGAACAG | 0.979 ± 0.011
22 | TACAGGGGGC | 1.12 ± 0.12
23 | CAAGACCACT | 1.06 ± 0.045
24 | CGGTCTGAGG | 1.017 ± 0.002
25 | TCGTAATGAG | 1.019 ± 0.0034
26 | GAGACTTAGA | 1.007 ± 0.0038

Row | Sequence | switch fluorescence ratio
27 | ACGACTTCTT | 0.989 ± 0.019
28 | CATGTTGTAT | 0.98166 ± 0.00075
29 | TTTATGAGGA | 1.02 ± 0.021
30 | AATGTTTATC | 1.027 ± 0.0084
31 | AGCTACACGT | 1.05 ± 0.014
32 | CTAGGATCGG | 0.993 ± 0.057
33 | GGAATATGTG | 0.998 ± 0.0093
34 | GTGTTGGAGG | 0.996 ± 0.017
35 | CGTTTTATAG | 0.9973 ± 0.0071
36 | TTCGGTATAG | 1 ± 0.025
37 | TTGGCAGTTA | 1.03 ± 0.061
38 | ATGCGAATCG | 0.99 ± 0.038
39 | ATGGGGGCTA | 0.979 ± 0.068
40 | GGAGCGGGGA | 1 ± 0.084
41 | TTTGGATCAG | 1.01 ± 0.02
42 | AGGGTGTCCG | 1.09 ± 0.054
43 | AGGTAGGCGC | 0.98 ± 0.041
44 | ATACGAGTGC | 1.01 ± 0.012
45 | ATGGGGGAAT | 1.0184 ± 0.00041
46 | ACTTTGAAGT | 0.993 ± 0.024
47 | GCGTTGTGTG | 1.02 ± 0.027
48 | TGTTTAAGGG | 1 ± 0.021
49 | TTGAGGTTCG | 1.05 ± 0.14
50 | CGAGGCAAGT | 5.07 ± 1.3
51 | CGTAGTTTGC | 1.52 ± 0.098
52 | TCTTTTCGAA | 1.01 ± 0.033

Row | Sequence | switch fluorescence ratio
53 | ATAGGGAAGT | 1 ± 0.017
54 | CGGGGGATGC | 1.05 ± 0.036
55 | CGATGATATT | 1.02 ± 0.053
56 | AAGTTGGGCT | 1.01 ± 0.025
57 | TTGGCCGCGA | 2.1 ± 0.066
58 | GAATGTAGTT | 1.01 ± 0.017
59 | TAGGGGGAT | 1.01 ± 0.011
60 | CAGATATTAC | 1.06 ± 0.035
61 | CAATAAAAG | 0.9766 ± 0.0071
62 | TCAGATATAC | 1.581 ± 0.0082
63 | ACAACGGGGT | 1.01 ± 0.046
64 | TTCAGGTTGG | 1.08 ± 0.082
65 | CAGCACGCGC | 1.06 ± 0.038
66 | CAACTATTTG | 1 ± 0.013
67 | TTGGGCACGG | 0.991 ± 0.0052
68 | TGGTTGTTCC | 1.03 ± 0.025
69 | CTATCTGCGG | 1.04 ± 0.046
70 | GGTCAAGCTC | 1.02 ± 0.02
71 | CTGAAAGGGC | 1.03 ± 0.066
72 | TAAGGGGGGT | 1.02 ± 0.034
73 | AGTATGAGGT | 0.98 ± 0.012
74 | TGGGGGTTCT | 1.02 ± 0.057
75 | TGGCGGGGTT | 0.986 ± 0.022
76 | TAGATGGCGG | 1 ± 0.013
77 | AAAATGGGGC | 1 ± 0.037
